This is an account of results in patent US20210171647A1 (WUXI BIOLOGICS SHANGHAI, published 2021).

Substitutions are numbered along the chain they refer to.

Assay in all cases: ELISA, antibody coated, OX40-ECD.His mutant supernatant; relative to silent alanine substitutions;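 note: captured OX40 mutant protein detected with HRP-labelled anti-His antibody, absorbance read-out, scaled to the mean signal of control mutants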
Background: ELISA stands for enzyme-linked immunosorbent assay.

One experiment has as its target T1, human OX40-ECD.His K120A (human, UniProt P43489 29-214).
T1 construct: extracellular domain; not shown: C-terminal His-tag
T1 sequence (looked up): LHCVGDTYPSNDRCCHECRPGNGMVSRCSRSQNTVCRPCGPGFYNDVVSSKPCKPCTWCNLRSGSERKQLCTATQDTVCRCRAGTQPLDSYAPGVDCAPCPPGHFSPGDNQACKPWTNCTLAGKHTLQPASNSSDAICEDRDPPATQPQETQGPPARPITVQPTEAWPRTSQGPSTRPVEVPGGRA

Another experiment has as its target T2, human OX40-ECD.His N160A (human, UniProt P43489 29-214).
T2 construct: extracellular domain; not shown: C-terminal His-tag
T2 sequence (looked up): T1 sequence (looked up) with A92K, N132A

Another experiment deals with T3, human OX40-ECD.His S159A (human, UniProt P43489 29-214).
T3 construct: extracellular domain; not shown: C-terminal His-tag
T3 sequence (looked up): T1 sequence (looked up) with A92K, S131A

The target in the next experiment is T4, human OX40-ECD.His P171A (human, UniProt P43489 29-214).
T4 construct: extracellular domain; not shown: C-terminal His-tag
T4 sequence (looked up): T1 sequence (looked up) with A92K, P143A

A further experiment addresses T5, human OX40-ECD.His D124A (human, UniProt P43489 29-214).
T5 construct: extracellular domain; not shown: C-terminal His-tag
T5 sequence (looked up): T1 sequence (looked up) with A92K, D96A

In another experiment the target is T6, human OX40-ECD.His R169A (human, UniProt P43489 29-214).
T6 construct: extracellular domain; not shown: C-terminal His-tag
T6 sequence (looked up): T1 sequence (looked up) with A92K, R141A

Another experiment deals with T7, human OX40-ECD.His T113A (human, UniProt P43489 29-214).
T7 construct: extracellular domain; not shown: C-terminal His-tag
T7 sequence (looked up): T1 sequence (looked up) with T85A, A92K

A further experiment deals with T8, human OX40-ECD.His R58A (human, UniProt P43489 29-214).
T8 construct: extracellular domain; not shown: C-terminal His-tag
T8 sequence (looked up): T1 sequence (looked up) with R30A, A92K

The target in the next experiment is T9, human OX40-ECD.His P129A (human, UniProt P43489 29-214).
T9 construct: extracellular domain; not shown: C-terminal His-tag
T9 sequence (looked up): T1 sequence (looked up) with A92K, P101A

A further experiment concerns the target T10, human OX40-ECD.His P69A (human, UniProt P43489 29-214).
T10 construct: extracellular domain; not shown: C-terminal His-tag
T10 sequence (looked up): T1 sequence (looked up) with P41A, A92K

Procedure for human OX40-ECD.His D124A: (§1) After interacting with the supernatant that contains quantified OX40 mutants or human OX40-ECD.His protein, HRP conjugated anti-His antibody (1:5000, GenScript-A00612, CHN) was added as detection antibody. Absorbance was normalized according to the average of control mutants.
Procedure for human OX40-ECD.His K120A: as §1
Procedure for human OX40-ECD.His N160A: as §1
Procedure for human OX40-ECD.His P129A: as §1
Procedure for human OX40-ECD.His P171A: as §1
Procedure for human OX40-ECD.His P69A: as §1
Procedure for human OX40-ECD.His R169A: as §1
Procedure for human OX40-ECD.His R58A: as §1
Procedure for human OX40-ECD.His S159A: as §1
Procedure for human OX40-ECD.His T113A: as §1

B1: 1.134.9-u1-IgG1L (antibody, V domains shown)
VH: QVQLQESGPGLVKPSGTLSLTCAVSGGSISSYNWWSWVRQPPGKGLEWIGEIYHGGNTNYNPSLKSRVTMSVDNSKNQFSLKLSSVTAADTAVYYCARAPGDWGGSPYFDFWGQGTLVTVSS
VL: SSELTQDPAVSVALGQTVRITCQGDNLRTYYASWYQQKPGQAPILLIYGRNKRPSGIPDRFSGSSSGNTASLTITGAQAEDEAAYYCNSRDSSGNPVVFGGGTKLTVL
notes: fully human IgG1, lambda
As for B1, the “Fold Change” value with human OX40-ECD.His K120A came to 0.896; in the experiment with human OX40-ECD.His N160A, 0.992; in the experiment with human OX40-ECD.His S159A, 0.458; in the experiment with human OX40-ECD.His P171A, 1.02; with human OX40-ECD.His D124A, 0.989; in the experiment with human OX40-ECD.His R169A, 1. Besides, the “Fold Change” value in the experiment with human OX40-ECD.His T113A was 0.784; with human OX40-ECD.His R58A it was 1; with human OX40-ECD.His P129A, 0.907; with human OX40-ECD.His P69A it was 0.987.
